Test results: PMC10686484, “Cas9 is mostly orthogonal to human systems of DNA break sensing and repair”

B1: sgRNA (pLK1) + dsDNA1/2* (mixed)
RNA: GGAUAACUCAAUUUGUAAAAAAGUUUUAGAGCUAGAAAUAGCAAGUUAAAAUAAGGCUAGUCCGUUAUCAACUUGAAAAAGUGGCACCGAGUCGGUGCUUUU
DNA 1: CTGATAACTCAATTTGTAAAAAATGGTACTGAGCA
DNA 2: TGCTCAGTACCATTTTTTACAAATTGAGTTATCAG
B2: dsDNA1/2* (dsDNA)
DNA 1: B1 DNA 1
DNA 2: B1 DNA 2

Key:
[1] = target: Cas9 (Streptococcus pyogenes, UniProt Q99ZW2 1-1368); assay: EMSA; preformed 1 complex with sgRNA, no Mg2+; reported as apparent Kd (EC50); EMSA: 50 mM Tris-HCl pH 7.5, 100 mM NaCl, 1 mM DTT, 0.1 mg/ml BSA (oligo dsDNA only), 10 mM MgCl2 if indicated (always for plasmid), 4 C, 30 min; 10 nM dsDNA or 10 ng/ul plasmid; conditions: protein: recombinant; label: 5'-32P on DNA2 (target strand); guide + blunt 35 bp duplex
[2] = target: Ku antigen (Ku70/80) (human, UniProt P12956;P13010 2-609;2-732); assay: EMSA; EMSA: 50 mM Tris-HCl pH 7.5, 100 mM NaCl, 1 mM DTT, 0.1 mg/ml BSA (oligo dsDNA only), 10 mM MgCl2 if indicated (always for plasmid), 4 C, 30 min; 10 nM dsDNA or 10 ng/ul plasmid; conditions: protein: native; copies: 1;1; label: 5'-32P on DNA2 (target strand); blunt 35 bp
[3] = target: T1, RPA (human, UniProt P27694;P15927;P35244 1-616;1-270;1-121); assay: EMSA; no Mg2+; reported as Kd; EMSA: 50 mM Tris-HCl pH 7.5, 100 mM NaCl, 1 mM DTT, 0.1 mg/ml BSA (oligo dsDNA only), 10 mM MgCl2 if indicated (always for plasmid), 4 C, 30 min; 10 nM dsDNA or 10 ng/ul plasmid; conditions: protein: recombinant; copies: 1;1;1; label: 5'-32P on DNA2 (target strand); blunt 35 bp
[4] = target: PARP2 (murine, UniProt O88554 1-559); assay: EMSA; no NAD+, no Mg2+; apparent Kd (EC50), from loss of free DNA; EMSA: 50 mM Tris-HCl pH 7.5, 100 mM NaCl, 1 mM DTT, 0.1 mg/ml BSA (oligo dsDNA only), 10 mM MgCl2 if indicated (always for plasmid), 4 C, 30 min; 10 nM dsDNA or 10 ng/ul plasmid; conditions: protein: recombinant; label: 5'-32P on DNA2 (target strand); blunt 35 bp
[5] = target: PARP1 (human, UniProt P09874 1-1014); assay: as above; conditions: protein: recombinant; label: 5'-32P on DNA2 (target strand); blunt 35 bp
[6] = target: YB1 (1-219) (human, UniProt P67809 1-219); assay: EMSA; 10 mM Mg2+; several complexes; EMSA: 50 mM Tris-HCl pH 7.5, 100 mM NaCl, 1 mM DTT, 0.1 mg/ml BSA (oligo dsDNA only), 10 mM MgCl2 if indicated (always for plasmid), 4 C, 30 min; 10 nM dsDNA or 10 ng/ul plasmid; conditions: protein: recombinant; label: 5'-32P on DNA2 (target strand); blunt 35 bp
[7] = target: T1, RPA; assay: EMSA; 10 mM Mg2+; reported as Kd; EMSA: 50 mM Tris-HCl pH 7.5, 100 mM NaCl, 1 mM DTT, 0.1 mg/ml BSA (oligo dsDNA only), 10 mM MgCl2 if indicated (always for plasmid), 4 C, 30 min; 10 nM dsDNA or 10 ng/ul plasmid; conditions: protein: recombinant; copies: 1;1;1; label: 5'-32P on DNA2 (target strand); blunt 35 bp

T1 sequence (P27694 whole entry, chain 1 of 3): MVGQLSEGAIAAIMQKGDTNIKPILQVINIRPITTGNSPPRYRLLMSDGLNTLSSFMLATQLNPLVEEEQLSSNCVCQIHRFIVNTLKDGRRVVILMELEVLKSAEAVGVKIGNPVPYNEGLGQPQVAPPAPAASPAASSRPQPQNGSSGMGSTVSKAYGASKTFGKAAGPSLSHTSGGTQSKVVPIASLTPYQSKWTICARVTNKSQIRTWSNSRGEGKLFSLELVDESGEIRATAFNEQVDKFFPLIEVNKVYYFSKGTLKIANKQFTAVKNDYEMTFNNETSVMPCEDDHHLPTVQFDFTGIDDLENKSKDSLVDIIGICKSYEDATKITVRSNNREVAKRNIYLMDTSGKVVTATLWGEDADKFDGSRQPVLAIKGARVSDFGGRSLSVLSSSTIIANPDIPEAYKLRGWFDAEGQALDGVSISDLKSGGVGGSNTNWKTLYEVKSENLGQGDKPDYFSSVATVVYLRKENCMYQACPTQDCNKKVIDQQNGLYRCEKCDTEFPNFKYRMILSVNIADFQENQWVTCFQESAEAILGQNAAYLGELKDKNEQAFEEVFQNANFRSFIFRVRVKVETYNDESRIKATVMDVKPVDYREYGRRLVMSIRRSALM
T1 sequence (P15927 whole entry, chain 2 of 3): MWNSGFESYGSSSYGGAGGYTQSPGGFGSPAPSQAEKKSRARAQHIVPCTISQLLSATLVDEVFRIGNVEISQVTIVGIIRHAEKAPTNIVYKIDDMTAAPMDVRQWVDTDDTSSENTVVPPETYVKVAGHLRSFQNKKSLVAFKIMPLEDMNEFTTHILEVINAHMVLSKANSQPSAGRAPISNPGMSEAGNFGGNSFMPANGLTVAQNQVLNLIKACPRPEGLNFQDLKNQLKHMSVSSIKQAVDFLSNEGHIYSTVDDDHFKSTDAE
T1 sequence (P35244 whole entry, chain 3 of 3): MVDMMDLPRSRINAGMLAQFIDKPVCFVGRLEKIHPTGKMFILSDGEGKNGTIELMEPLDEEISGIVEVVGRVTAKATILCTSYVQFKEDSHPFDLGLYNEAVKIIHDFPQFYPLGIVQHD
Ku antigen (Ku70/80), sequence (P12956 2-609, chain 1 of 2): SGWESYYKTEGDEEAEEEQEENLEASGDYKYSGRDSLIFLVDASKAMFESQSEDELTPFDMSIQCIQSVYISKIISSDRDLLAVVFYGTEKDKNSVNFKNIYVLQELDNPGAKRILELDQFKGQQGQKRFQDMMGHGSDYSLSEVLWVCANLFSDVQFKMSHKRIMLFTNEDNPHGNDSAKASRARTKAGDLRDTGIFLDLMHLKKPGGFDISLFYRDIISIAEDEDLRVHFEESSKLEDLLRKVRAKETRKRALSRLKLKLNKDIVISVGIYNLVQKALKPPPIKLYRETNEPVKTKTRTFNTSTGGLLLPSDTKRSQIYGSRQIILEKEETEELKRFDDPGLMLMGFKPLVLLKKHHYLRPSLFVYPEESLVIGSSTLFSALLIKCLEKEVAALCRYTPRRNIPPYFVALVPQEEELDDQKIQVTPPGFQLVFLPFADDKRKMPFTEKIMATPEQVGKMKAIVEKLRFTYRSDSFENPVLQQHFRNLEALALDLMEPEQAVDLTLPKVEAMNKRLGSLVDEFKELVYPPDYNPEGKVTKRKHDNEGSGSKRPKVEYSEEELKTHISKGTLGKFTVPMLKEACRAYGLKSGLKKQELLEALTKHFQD
Ku antigen (Ku70/80), sequence (P13010 2-732, chain 2 of 2): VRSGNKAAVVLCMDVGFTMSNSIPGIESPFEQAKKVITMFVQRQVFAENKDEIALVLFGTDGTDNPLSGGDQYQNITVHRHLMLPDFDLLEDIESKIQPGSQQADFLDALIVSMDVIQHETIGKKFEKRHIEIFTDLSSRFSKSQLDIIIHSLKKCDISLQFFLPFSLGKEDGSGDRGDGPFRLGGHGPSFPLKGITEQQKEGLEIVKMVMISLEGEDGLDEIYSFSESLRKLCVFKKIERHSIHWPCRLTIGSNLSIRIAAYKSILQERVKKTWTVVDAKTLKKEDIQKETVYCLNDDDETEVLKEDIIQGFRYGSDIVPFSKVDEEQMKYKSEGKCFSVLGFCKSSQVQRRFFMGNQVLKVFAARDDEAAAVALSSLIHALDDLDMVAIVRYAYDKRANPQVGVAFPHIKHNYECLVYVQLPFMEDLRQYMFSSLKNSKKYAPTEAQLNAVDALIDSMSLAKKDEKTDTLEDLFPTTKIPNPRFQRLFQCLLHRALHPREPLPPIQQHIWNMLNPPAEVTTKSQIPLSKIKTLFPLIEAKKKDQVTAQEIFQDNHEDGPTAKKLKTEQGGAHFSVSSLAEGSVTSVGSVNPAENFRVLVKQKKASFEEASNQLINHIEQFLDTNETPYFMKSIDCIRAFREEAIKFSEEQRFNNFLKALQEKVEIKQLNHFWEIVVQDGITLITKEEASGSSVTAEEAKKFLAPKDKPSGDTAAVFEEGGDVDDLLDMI
PARP2, sequence (O88554 whole entry): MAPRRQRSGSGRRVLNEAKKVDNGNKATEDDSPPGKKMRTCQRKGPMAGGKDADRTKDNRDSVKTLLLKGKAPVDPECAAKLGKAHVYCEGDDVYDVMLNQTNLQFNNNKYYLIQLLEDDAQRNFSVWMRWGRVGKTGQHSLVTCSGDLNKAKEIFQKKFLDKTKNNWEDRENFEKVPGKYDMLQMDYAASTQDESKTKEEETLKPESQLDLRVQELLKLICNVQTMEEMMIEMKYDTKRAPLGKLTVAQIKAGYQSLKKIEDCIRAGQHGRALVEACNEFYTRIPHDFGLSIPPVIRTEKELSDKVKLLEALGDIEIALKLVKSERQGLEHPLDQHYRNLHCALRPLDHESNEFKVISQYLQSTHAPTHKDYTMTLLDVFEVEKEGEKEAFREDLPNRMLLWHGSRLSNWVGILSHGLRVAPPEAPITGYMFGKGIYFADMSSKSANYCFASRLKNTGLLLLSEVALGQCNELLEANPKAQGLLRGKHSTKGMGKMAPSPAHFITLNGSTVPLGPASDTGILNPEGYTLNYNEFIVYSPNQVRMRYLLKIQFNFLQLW
YB1 (1-219), sequence (P67809 1-219): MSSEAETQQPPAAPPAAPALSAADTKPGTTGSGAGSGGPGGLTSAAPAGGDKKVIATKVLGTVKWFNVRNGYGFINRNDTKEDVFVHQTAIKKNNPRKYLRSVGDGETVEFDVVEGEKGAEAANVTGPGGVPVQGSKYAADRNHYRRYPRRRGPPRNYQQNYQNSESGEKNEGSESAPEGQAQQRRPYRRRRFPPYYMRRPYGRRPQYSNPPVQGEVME
PARP1, sequence (P09874 whole entry): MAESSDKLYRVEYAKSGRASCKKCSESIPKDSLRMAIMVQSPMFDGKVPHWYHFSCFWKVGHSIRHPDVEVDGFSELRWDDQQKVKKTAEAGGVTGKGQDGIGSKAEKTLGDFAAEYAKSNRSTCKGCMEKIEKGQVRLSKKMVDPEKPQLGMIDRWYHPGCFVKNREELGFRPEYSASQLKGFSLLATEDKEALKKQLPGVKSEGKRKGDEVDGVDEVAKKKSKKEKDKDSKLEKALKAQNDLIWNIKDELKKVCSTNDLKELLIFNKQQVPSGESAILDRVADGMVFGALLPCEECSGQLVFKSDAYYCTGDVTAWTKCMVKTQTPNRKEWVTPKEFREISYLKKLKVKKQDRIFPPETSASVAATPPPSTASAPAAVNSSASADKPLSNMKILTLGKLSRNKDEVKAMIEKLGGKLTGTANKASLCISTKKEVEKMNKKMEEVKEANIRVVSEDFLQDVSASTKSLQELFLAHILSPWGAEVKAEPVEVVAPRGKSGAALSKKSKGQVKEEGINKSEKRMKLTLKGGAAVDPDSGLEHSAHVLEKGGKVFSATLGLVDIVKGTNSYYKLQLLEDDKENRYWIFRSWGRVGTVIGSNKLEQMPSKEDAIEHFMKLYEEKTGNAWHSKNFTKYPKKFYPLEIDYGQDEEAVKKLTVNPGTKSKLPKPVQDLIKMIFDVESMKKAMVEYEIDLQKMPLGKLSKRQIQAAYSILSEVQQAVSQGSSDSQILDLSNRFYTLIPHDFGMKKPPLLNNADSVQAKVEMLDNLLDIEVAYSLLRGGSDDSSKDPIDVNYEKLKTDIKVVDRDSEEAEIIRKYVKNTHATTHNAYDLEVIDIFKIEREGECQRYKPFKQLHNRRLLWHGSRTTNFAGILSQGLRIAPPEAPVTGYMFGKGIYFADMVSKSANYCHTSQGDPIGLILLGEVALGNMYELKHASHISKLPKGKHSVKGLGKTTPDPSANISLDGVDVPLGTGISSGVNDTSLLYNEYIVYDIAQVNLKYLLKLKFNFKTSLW

Row | Binder | apparent K (half saturation) [1] [nM] | binding result [2] | apparent K (half saturation) [3] [nM] | apparent K (half saturation) [4] [nM] | apparent K (half saturation) [5] [nM] | binding result [6] | apparent K (half saturation) [7] [nM]
1 | B1 | 7.7 ± 0.4 |  |  |  |  |  | 
2 | B2 |  | binds | 90 ± 20 | 200 ± 16 | 53 ± 5 | binds | 125 ± 40
